Measurements from publication PMC7459334, “Akkermansia muciniphila uses human milk oligosaccharides to thrive in the early life conditions in vitro” (Scientific Reports, 2020).

What was measured:
Experiment in all cases: purified protein
purified protein [1] = substrate: O=[N+]([O-])c1ccc(O[C@@H]2O[C@H](CO)[C@H](O)[C@H](O)[C@H]2O)cc1; settings: McIlvaine buffer, pH 5.0, 37 °C
purified protein [2] = substrate: C[C@@H]1O[C@@H](Oc2ccc([N+](=O)[O-])cc2)[C@@H](O)[C@H](O)[C@@H]1O; format: biochemical, Akkermansia muciniphila; settings: McIlvaine buffer, pH 5.6, 37 °C, text b19 prints 839 ± 46.72
purified protein [3] = substrate: CC(=O)N[C@H]1[C@H](Oc2ccc([N+](=O)[O-])cc2)O[C@H](CO)[C@@H](O)[C@@H]1O; format: biochemical, Akkermansia muciniphila; settings: McIlvaine buffer
[4] = pH 5.6, 37 °C, text b19 prints 322.37 ± 43.64

B1: Amuc_1686 (Akkermansia muciniphila ATCC BAA-835) (protein)
chain: AAPMPLPESNDGARHVFSTNQENFLMDGKPVKIISGEMHYPRVPRQHWKDRFQRIKAMGMNTVCTYLFWNVHEPEPGKWDFSGNLDFVEFIKEAQKAGLWVIVRPGPYVCAEWEFGGFPGWLLKDEDLKVRSQDPRFLEPAMAYLKKVCSMLEPLQITKGGPIIMAQVENEYGSYGSDKDYVKKHLDVIRKELPGVVPFTSDGPNDWMIKNGTLPGVVPAMNFGGGAKGAFANLEKHKGKTPRINGEFWVGWFDHWGKPKNGGSTEGFNRDLKWMLENNVSPNLFMAHGGTSFGFMNGANWEGAYTPDVTNYDYGAPISENGTLTDRYRTFRQTIQDYYGDTYKLPEPPAQPEMMELPPITFTETAGMFSRLPQPVIRKEPVHMEALGQSLGFILYRTKVNGPVKGELKMNNMQDRAIVYVDGKRQGAADRRYKQDSCDIVIPSGLHTVDIFVENMGRINFGGQIQGERKGIRGPITLDGKKLENFLIYNFPCKGVELIPFSGKKPAGDQPVFHRGYFNVSNPKDTYLDMRDGWKKGVVWVNGRNLGRFWFIGSQQALYCPGEYLKPGKNEIVVLDVDGGSGTVKGVKEAIYEVNRDPAMADVFRVGKPVAPAAGQLVHKGSFAKGADQQEIKFRAPVQARYIAIVSKNAHDNGPHAAIAELNFLDASGNLLPREQWSVVYADSHETTGEAAQAGLVMDNQPTTYWHTKWQGDNPRHPHMIVLDLGKVQKLSGFRYLPRQDRENGRIKDYEVYASPKPFKPAK
Km (purified protein [1]): 319.40 ± 259.30 µM
Vmax (purified protein [1]): 29.3 µM/min
kcat (purified protein [1]): 27.2 s⁻¹
kcat/Km (purified protein [1]): 70200 M⁻¹ s⁻¹

B2: Amuc_0010 (Akkermansia muciniphila ATCC BAA-835) (protein)
chain: QQSATKIITENGQPALALDEQFAARLRDGGMKQGSPATVPAEFSAAAPGLPLPADANHAAVRETAGERNRRMEWWRDAKFGMFIHYGLYSGLAGEWKGRPGGSEWIQKNVEVDTDTYAAEALPLFKPREGLTEEWAQLARDAGCQYVVLTSKHHEGFGLFDSALTDYDAKSAVNRDIIREYVDSCRKRGLKVGLYHSVIDWHHPSYDNTICPDLCYPAGQAAMLNRKNIPRDHAAYQKYLHAQVRELMTRYAPIDIMWWDYSQGAMEGAKGWKAPELMDMVRSINPGVIMNNRLYAYSGLNKNQAGTLDLRCGDYITPERFIPRRGYPGVDWESCMTVSDKWGYNRYDTNIKSPETIIEKLVECVTKGGNLLLNVNPMADGTIPEKVAATMRGVGRWLNINGEAVYGTRAFMQLDQPATINRQGDIFIFLIPPPDKEPAQPPSEGTMKELTAGAEHARMQPLDATGYENDGGTAVTLPAGYSKALLLGDNTALPVVNGTVLFKAHEHSKTPCSVIKLSK
Km (purified protein [2]): 841.23 ± 46.72 µM
Vmax (purified protein [2]): 19.8 µM/min
kcat (purified protein [2]): 378 s⁻¹
kcat/Km (purified protein [2]): 451000 M⁻¹ s⁻¹

B3: Amuc_2136 (Akkermansia muciniphila ATCC BAA-835) (protein)
chain: QDAKQIADSLSIPPVKAGAKQLPMPSVSGAQIKLLGADYEQLVNSKGKIAPVISDTPVNVSFKVTKDGKEAVSKDYEIMLQAPQAAQGNPKPRIIPEILQWKGGQGEYKLGNTVTIACPDKELGKLFAADMEDVLGKKVKLVAPGAKADISLSLLKGGNLGREGYRLQIARDGVRLGAAAPTGLFWGTRTLLQMLRQTPGSVPCGTAVDFPRYQLRGFMLDVARTPYPLSYLKDVIRTMAWYKMNDLHLVINNNYIFHEHYVDNGHDPFKESYAAFRLESKMKGKDGTPLTARDLFYTKKEFADLVSYARKYGVNIVPEFDTPGHALSFTRLRPDLIYKGPMNHEKRRCEMLDAANPETIDLVSKVFDEYMLKDPKLGRPVFADCGVVHVGADEFYGDKEDYRHFANAVLTHALKRGYTPRIWGSLSAKPGKTPVVSKGVQMNLWSTGWMKAWEAVNQGYDVINTNDGALYIVPFAGYYRMDRNHKGLYNNWIPNRIGNETLPSGHPQLLGGTFAVWNDETDIMHTGYAPYDIWGIISGSMDVLSQKLWGTAKAPDTFEQHRELVSSIGNAPRTNPLHKWKDSQPLTVKPSSLPQKLDKPALGPNYRLTMELELTAAPEGKEQVLLAAPEGELLAVMKDGTVGFRRDDSLEFSFGAKLPVGKKVKVEIVGEPEKTSLLLDGEPAGTAVLKNFSDKSKDFSDKFKHRPKVHRSTFILPLKELGSSFQGKVFHMNVQPL
Km (purified protein [3]; pH 5.0, 37 °C): 714.55 ± 47.96 µM
Vmax (purified protein [3]; pH 5.0, 37 °C): 109 µM/min
kcat (purified protein [3]; pH 5.0, 37 °C): 1490 s⁻¹
kcat/Km (purified protein [3]; pH 5.0, 37 °C): 2.08e+06 M⁻¹ s⁻¹

B4: Amuc_0771 (Akkermansia muciniphila ATCC BAA-835) (protein)
chain: GPEAVQNVQKPALSGGPPVVFGFGGEGNQEFMLNGKPFQIRGAEMHPQRIPREYWRHRIRTAKAMGLNTIAFYVFWNDHEQPDGSFDFKTGNRDLEGFLKLCQEEGMWVLFRPGPYACGEWDLGGLPHYLLKDPKAKLRTTEDAKFMKAQTRYLEAVARVAEPFLAKNGGPILMTQLENEYGSYQRKDRKYMEWLKAFWSRKGFGPFYTSDGAGEHFLKGVVLPGVAVGLDPGLNDGHWAVANKCNPGVPVFSSETYPGWLRHWGEGNWAPTPGVVNHVRWFMDKGRSFSLFVFHGGTNFGFSAGANNGGPGKYQPDLTSYDYGSPVDEQGRMNEYYAQMREIILKKLPPEAAVPEPPADIPAMEIPEFTPAVHAGLWENLPKPFRSKFPQPPYFEQWNQNQGIAVYRTAVPSGPPETLEFTNVNDYAQVYLDGELVGTLDRRLGQKSVKLPERRKPGTLEVLVEAMGHINFHISMESDRKGIYGPVKLGTRELKNWTVRALPLKADSIVRAPKGKGPSQKREGAHFRAVVNIEEPQDTFLDMSRYVKGYVWVNGINVGRYWNVGPQLRLYVPAPFLKKGENVIDILDLHEKEPKPVRGMKERNKEPGKINTKNLDNQW
Km (purified protein [1]): 2,599 ± 565.27 μM
Vmax (purified protein [1]): 60.1 µM/min
kcat (purified protein [1]): 13.8 s⁻¹
kcat/Km (purified protein [1]): 5670 M⁻¹ s⁻¹

B5: Amuc_0369 (Akkermansia muciniphila ATCC BAA-835) (protein)
chain: QEQIIPKPAEITLFTGSPARLTPDSLIITETQDKAFLDQAGQLQQMLSAGTGLPLPLKPAGQASKKAACIVIKKDPALAARGEEAYSIQSSPSGIILSAADARGIFYAGQSLVQMMPSVFHDRTGDKSAVRWNISETPFRITDYPRFSWRALMIDEARHFFGEKTIKQIIDQMALLKMNILHWHLTDDTGWRIEIKKYPRLTSIGSKRRESEIGTWNSGKSDGTPHEGFYTQEQIRDIVQYAARRNITIVPEIEMPGHASAAAVAYPFLSLKTPGEVPTTFIVNTAFDPTSEKTYAFLSDVLDEVTAIFPGRIIHIGGDEVRYDKQWKGVPEIEEFMKKNGMKSYADVQMHFTNRMSGIIAQKGRRMMGWNEIYGHDVNGDGGGKAGAKLDTNAVIQFWKGNTSLAKNAIRDGHDVINSLHTSTYLDYSYGSIPLQKAYGFEPVFPGLEKQYHSRVKGLGAQVWTEWISTPERLHYQAFPRACAFAEVGWTPAGKKDFPDFKKRLKAYSERMDLMGIKFARNVISQIDKSDFFNTPRIGTWTPATLTREEHSFDVTKLVKASGKHTVTLLYDKGAHAIEIESVALYENSREVSRDAHAGRSGAHKENIQYILNAPAPRQGATYTVKANFKGAGGRDSHGTVYFETP
Km (purified protein [3]; [4]): 323.38 ± 43.64 µM
Vmax (purified protein [3]; [4]): 55.6 µM/min
kcat (purified protein [3]; [4]): 670 s⁻¹
kcat/Km (purified protein [3]; [4]): 2.07e+06 M⁻¹ s⁻¹
